Experimental data: article PMC12102759 (2025)

B1: NOTCH4 peptide 1606-1621 (Neurogenic locus notch homolog protein 4), 16-mer library wild type / NSP9 (ORF1ab Nsp9, residues 4141-4253) (parent complex)
chain 1: QGAWLGAPEPWEPLLD
chain 2: NNELSPVALRQMSCAAGTTQTACTDDNALAYYNTTKGGRFVLALLSDLQDLKWARFPKSDGTGTIYTELEPPCRFVTDTPKGPKVKYLYFIKGLNNLNRGMVLGSLAATVRLQ
B2: AZIN2 peptide 1-16 (Antizyme inhibitor 2), 16-mer library wild type / NSP3 ADRP (ORF1ab Nsp3b ADRP, residues 1023-1192) (parent complex)
chain 1: MAGYLSESDFVMVEEG
chain 2: not shown

Variants of: B1
Assay: bait immobilised on MaxiSorp plates (10 µg), library pre-cleared on GST, 2 h binding at 4 °C, five washes; one round per day, days 1-4; value from days 2 and 3
chain 1 L15F was tested, and the screen value was 0.000114 average fractional NGS count over selection days 2 and 3 (reads of this peptide / all reads for the bait, averaged over ….
With chain 1 E12T the screen value was 0.00258 average fractional NGS count over selection days 2 and 3 (reads of this peptide / all reads for the bait, averaged over ….
chain 1 E9L was tested, and the screen value was 0.0321 average fractional NGS count over selection days 2 and 3 (reads of this peptide / all reads for the bait, averaged over ….
With chain 1 Q1Y the screen value was 0.00151 average fractional NGS count over selection days 2 and 3 (reads of this peptide / all reads for the bait, averaged over ….
For chain 1 P8F, the screen value was 0.000628 average fractional NGS count over selection days 2 and 3 (reads of this peptide / all reads for the bait, averaged over ….
For chain 1 P8I, the screen value was 0.000952 average fractional NGS count over selection days 2 and 3 (reads of this peptide / all reads for the bait, averaged over ….
In the case of chain 1 P10K, the screen value is reported as 0.00223 average fractional NGS count over selection days 2 and 3 (reads of this peptide / all reads for the bait, averaged over ….
In the case of chain 1 P13Q, the screen value is reported as 0.000154 average fractional NGS count over selection days 2 and 3 (reads of this peptide / all reads for the bait, averaged over ….
With chain 1 L15R the screen value was 0.000322 average fractional NGS count over selection days 2 and 3 (reads of this peptide / all reads for the bait, averaged over ….
With chain 1 P10M the screen value was 0.0078 average fractional NGS count over selection days 2 and 3 (reads of this peptide / all reads for the bait, averaged over ….
chain 1 E12W was tested, and the screen value was 0.0479 average fractional NGS count over selection days 2 and 3 (reads of this peptide / all reads for the bait, averaged over ….
With chain 1 P10H the screen value was 0.000471 average fractional NGS count over selection days 2 and 3 (reads of this peptide / all reads for the bait, averaged over ….
For chain 1 P10W, the screen value was 0.00034 average fractional NGS count over selection days 2 and 3 (reads of this peptide / all reads for the bait, averaged over ….
In the case of chain 1 A7Q, the screen value is reported as 0.00107 average fractional NGS count over selection days 2 and 3 (reads of this peptide / all reads for the bait, averaged over ….
For chain 1 P13W, the screen value was 0.000306 average fractional NGS count over selection days 2 and 3 (reads of this peptide / all reads for the bait, averaged over ….
chain 1 A7H was tested, and the screen value was 0.0144 average fractional NGS count over selection days 2 and 3 (reads of this peptide / all reads for the bait, averaged over ….
For chain 1 L14T, the screen value was 0.00105 average fractional NGS count over selection days 2 and 3 (reads of this peptide / all reads for the bait, averaged over ….
For chain 1 A3M, the screen value was 0.0101 average fractional NGS count over selection days 2 and 3 (reads of this peptide / all reads for the bait, averaged over ….
chain 1 A7E was tested, and the screen value was 0.000192 average fractional NGS count over selection days 2 and 3 (reads of this peptide / all reads for the bait, averaged over ….
In the case of chain 1 P8S, the screen value is reported as 0.00076 average fractional NGS count over selection days 2 and 3 (reads of this peptide / all reads for the bait, averaged over ….
chain 1 E12H was tested, and the screen value was 8.76e-05 average fractional NGS count over selection days 2 and 3 (reads of this peptide / all reads for the bait, averaged over ….
chain 1 W11T was tested, and the screen value was 0.000139 average fractional NGS count over selection days 2 and 3 (reads of this peptide / all reads for the bait, averaged over ….
For chain 1 P13H, the screen value was 0.000211 average fractional NGS count over selection days 2 and 3 (reads of this peptide / all reads for the bait, averaged over ….
chain 1 G6P was tested, and the screen value was 0.00151 average fractional NGS count over selection days 2 and 3 (reads of this peptide / all reads for the bait, averaged over ….
For chain 1 E9A, the screen value was 0.000237 average fractional NGS count over selection days 2 and 3 (reads of this peptide / all reads for the bait, averaged over ….
In the case of chain 1 A7D, the screen value is reported as 0.00053 average fractional NGS count over selection days 2 and 3 (reads of this peptide / all reads for the bait, averaged over ….
For chain 1 L14Y, the screen value was 0.00146 average fractional NGS count over selection days 2 and 3 (reads of this peptide / all reads for the bait, averaged over ….
With chain 1 W11E the screen value was 0.00215 average fractional NGS count over selection days 2 and 3 (reads of this peptide / all reads for the bait, averaged over ….
For chain 1 P10R, the screen value was 0.00113 average fractional NGS count over selection days 2 and 3 (reads of this peptide / all reads for the bait, averaged over ….
For chain 1 A3Y, the screen value was 0.00272 average fractional NGS count over selection days 2 and 3 (reads of this peptide / all reads for the bait, averaged over ….
For chain 1 L15D, the screen value was 0.000339 average fractional NGS count over selection days 2 and 3 (reads of this peptide / all reads for the bait, averaged over ….
chain 1 E12L was tested, and the screen value was 0.00277 average fractional NGS count over selection days 2 and 3 (reads of this peptide / all reads for the bait, averaged over ….
chain 1 E9Y was tested, and the screen value was 0.000233 average fractional NGS count over selection days 2 and 3 (reads of this peptide / all reads for the bait, averaged over ….
For chain 1 E9T, the screen value was 0.00217 average fractional NGS count over selection days 2 and 3 (reads of this peptide / all reads for the bait, averaged over ….
In the case of chain 1 W11H, the screen value is reported as 0.00345 average fractional NGS count over selection days 2 and 3 (reads of this peptide / all reads for the bait, averaged over ….
In the case of chain 1 Q1A, the screen value is reported as 0.00674 average fractional NGS count over selection days 2 and 3 (reads of this peptide / all reads for the bait, averaged over ….
chain 1 P8M was tested, and the screen value was 0.00044 average fractional NGS count over selection days 2 and 3 (reads of this peptide / all reads for the bait, averaged over ….
For chain 1 W11M, the screen value was 0.0273 average fractional NGS count over selection days 2 and 3 (reads of this peptide / all reads for the bait, averaged over ….
With chain 1 Q1I the screen value was 0.000162 average fractional NGS count over selection days 2 and 3 (reads of this peptide / all reads for the bait, averaged over ….
With chain 1 E9K the screen value was 0.000266 average fractional NGS count over selection days 2 and 3 (reads of this peptide / all reads for the bait, averaged over ….
chain 1 Q1L was tested, and the screen value was 0.000598 average fractional NGS count over selection days 2 and 3 (reads of this peptide / all reads for the bait, averaged over ….
With chain 1 P13G the screen value was 0.00615 average fractional NGS count over selection days 2 and 3 (reads of this peptide / all reads for the bait, averaged over ….
In the case of chain 1 Q1H, the screen value is reported as 0.000824 average fractional NGS count over selection days 2 and 3 (reads of this peptide / all reads for the bait, averaged over ….
chain 1 P10N was tested, and the screen value was 0.000425 average fractional NGS count over selection days 2 and 3 (reads of this peptide / all reads for the bait, averaged over ….
For chain 1 L14M, the screen value was 0.00305 average fractional NGS count over selection days 2 and 3 (reads of this peptide / all reads for the bait, averaged over ….
chain 1 P13I was tested, and the screen value was 0.00354 average fractional NGS count over selection days 2 and 3 (reads of this peptide / all reads for the bait, averaged over ….
For chain 1 L14A, the screen value was 0.00317 average fractional NGS count over selection days 2 and 3 (reads of this peptide / all reads for the bait, averaged over ….
chain 1 Q1T was tested, and the screen value was 0.000204 average fractional NGS count over selection days 2 and 3 (reads of this peptide / all reads for the bait, averaged over ….
For chain 1 L15P, the screen value was 0.000417 average fractional NGS count over selection days 2 and 3 (reads of this peptide / all reads for the bait, averaged over ….
For chain 1 A7G, the screen value was 0.00198 average fractional NGS count over selection days 2 and 3 (reads of this peptide / all reads for the bait, averaged over ….
For chain 1 P13E, the screen value was 0.000762 average fractional NGS count over selection days 2 and 3 (reads of this peptide / all reads for the bait, averaged over ….
With chain 1 E12Y the screen value was 0.00153 average fractional NGS count over selection days 2 and 3 (reads of this peptide / all reads for the bait, averaged over ….
For chain 1 P13K, the screen value was 0.00839 average fractional NGS count over selection days 2 and 3 (reads of this peptide / all reads for the bait, averaged over ….
With chain 1 L5I the screen value was 0.000857 average fractional NGS count over selection days 2 and 3 (reads of this peptide / all reads for the bait, averaged over ….
With chain 1 E12Q the screen value was 0.00173 average fractional NGS count over selection days 2 and 3 (reads of this peptide / all reads for the bait, averaged over ….
With chain 1 P10L the screen value was 0.00033 average fractional NGS count over selection days 2 and 3 (reads of this peptide / all reads for the bait, averaged over ….
In the case of chain 1 P8E, the screen value is reported as 0.000231 average fractional NGS count over selection days 2 and 3 (reads of this peptide / all reads for the bait, averaged over ….
For chain 1 E12G, the screen value was 0.00333 average fractional NGS count over selection days 2 and 3 (reads of this peptide / all reads for the bait, averaged over ….
chain 1 A3F was tested, and the screen value was 0.00137 average fractional NGS count over selection days 2 and 3 (reads of this peptide / all reads for the bait, averaged over ….
chain 1 G6A was tested, and the screen value was 9.6e-05 average fractional NGS count over selection days 2 and 3 (reads of this peptide / all reads for the bait, averaged over ….
For chain 1 Q1E, the screen value was 0.00488 average fractional NGS count over selection days 2 and 3 (reads of this peptide / all reads for the bait, averaged over ….
With chain 1 P13Y the screen value was 0.000242 average fractional NGS count over selection days 2 and 3 (reads of this peptide / all reads for the bait, averaged over ….
With chain 1 A7R the screen value was 0.000186 average fractional NGS count over selection days 2 and 3 (reads of this peptide / all reads for the bait, averaged over ….
In the case of chain 1 W11S, the screen value is reported as 0.000466 average fractional NGS count over selection days 2 and 3 (reads of this peptide / all reads for the bait, averaged over ….
chain 1 E9G was tested, and the screen value was 0.00198 average fractional NGS count over selection days 2 and 3 (reads of this peptide / all reads for the bait, averaged over ….
For chain 1 E9I, the screen value was 0.00116 average fractional NGS count over selection days 2 and 3 (reads of this peptide / all reads for the bait, averaged over ….
chain 1 W11L was tested, and the screen value was 0.0119 average fractional NGS count over selection days 2 and 3 (reads of this peptide / all reads for the bait, averaged over ….
For chain 1 L15I, the screen value was 0.0135 average fractional NGS count over selection days 2 and 3 (reads of this peptide / all reads for the bait, averaged over ….
In the case of chain 1 E9W, the screen value is reported as 0.00272 average fractional NGS count over selection days 2 and 3 (reads of this peptide / all reads for the bait, averaged over ….
chain 1 W11D was tested, and the screen value was 0.000384 average fractional NGS count over selection days 2 and 3 (reads of this peptide / all reads for the bait, averaged over ….
In the case of chain 1 W4Y, the screen value is reported as 0.000452 average fractional NGS count over selection days 2 and 3 (reads of this peptide / all reads for the bait, averaged over ….
In the case of chain 1 P10S, the screen value is reported as 0.000591 average fractional NGS count over selection days 2 and 3 (reads of this peptide / all reads for the bait, averaged over ….

Variants of: B2
Assay: as above
For chain 1 M12S, the screen value was 0.000927 average fractional NGS count over selection days 2 and 3 (reads of this peptide / all reads for the bait, averaged over ….
For chain 1 V11H, the screen value was 7.39e-05 average fractional NGS count over selection days 2 and 3 (reads of this peptide / all reads for the bait, averaged over ….
With chain 1 V11T the screen value was 0.000107 average fractional NGS count over selection days 2 and 3 (reads of this peptide / all reads for the bait, averaged over ….
